The results in this text go back to paper PMC3484103.

This assay concerns the target GST fused to Las17 fragment P8-12 (GST-P8-12) (S. cerevisiae) (UniProt Q12446). Description: pull-down.
UniProt Q12446, sequence (Q12446 300-404): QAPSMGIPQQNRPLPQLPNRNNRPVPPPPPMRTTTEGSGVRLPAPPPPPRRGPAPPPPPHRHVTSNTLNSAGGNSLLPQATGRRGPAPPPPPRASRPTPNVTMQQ

Substance “hexahistidine-tagged Sla1 fragment spanning the SH3 domains 1 and 2 (His-Sla1-SH3-1-2) (domain or fragment)” gave a Kd of 56 nM.
